According to the supplement of paper PMC12042874:
± gives the uncertainty stated by the source.

Test: amyloid nucleation score (Sup35N fusion, yeast selection) (log enrichment); library NNK2; higher = more nucleation; inactive = no reads after selection
Outline: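 Growth for 7 days at 30°C on medium lacking adenine and uracil followed a 24-hour induction with 100 μM copper sulfate of psi-negative yeast expressing peptides of 20 random codons fused to Sup35N. Input and output plasmid inserts were sequenced with Illumina, and sequences with under 100 input reads were excluded. Nucleation score is the DiMSum log enrichment of output over input reads, centred on the mode score of non-aggregating sequences.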

| Substance | amyloid nucleation score |
| --- | --- |
| REIARGRMYLGSPGLVDIVA | -0.232 ± 0.76 |
| REQYPYINQHRP | 2.52 ± 0.14 |
| RERDNVMDIVGSAMRDCCQF | 0.282 ± 0.25 |
| RESTTRMSAGNVYRVTHKHS | 0.224 ± 0.4 |
| REWWYKKALPQCENTIGVGQ | 0.721 ± 0.47 |
| RFCWICCHVQFFYELHITHA | inactive |
| RFFYYVVTLDAFNTFHKHLG | -1.56 ± 1.1 |
| RFGNCGVTMTRSAGRFRAIS | -0.169 ± 0.29 |
| RFGVSVTGDTSRCSGCGGAH | 4.01 ± 0.089 |
| RFHRYTILLLLTPEWTEHAI | 0.52 ± 0.57 |
| RFIND | -0.703 ± 1 |
| RFKLEYHEEG | 2.81 ± 0.19 |
| RFNWFFRHV | 0.524 ± 0.81 |
| RFNYEP | 0.262 ± 0.46 |
| RFRFGAVNLV | 0.849 ± 0.49 |
| RFRHGNDYGSYYFCGLLGSM | 0.264 ± 0.46 |
| RFRLWIVCG | -0.253 ± 0.26 |
| RFTESYSL | -0.935 ± 0.48 |
| RGLAES | -0.2 ± 0.24 |
| RGNMESLWQNRKGRCSLNHG | inactive |
| RGRCFWLEFTFISWLSNDVA | inactive |
| RGRHGASMELESVDKRTVSR | 0.656 ± 0.34 |
| RGRLMCSYLILNFCRSG | 3.04 ± 0.12 |
| RGSGKCYRAGFMIAIVTHPL | 1.5 ± 0.41 |
| RGSRNNQVWGQSFFMPQWTA | -0.405 ± 0.41 |

| Substance | amyloid nucleation score |
| --- | --- |
| RGVFAMLTVSYGNS | 5.483 ± 0.043 |
| RGWLRFMEQNGTYSEYDVDL | 12.82 ± 0.022 |
| RGYVRLSHTGTTRHHP | inactive |
| RHLDSDPRIRKPHFGDPVNT | -0.144 ± 0.55 |
| RHLISSLRELHTTLNLHRPE | 0.101 ± 0.76 |
| RHLVIYRLVNCKSARLSRTL | inactive |
| RHQYETKYRPYRVIPLQRMV | 0.277 ± 0.46 |
| RHSLYVFY | 1.69 ± 0.33 |
| RHTSNTIIDELFLDSMGWHN | 9.016 ± 0.05 |
| RHVMSR | 0.419 ± 0.23 |
| RIFLYND | inactive |
| RIFQLSTSGN | 0.072 ± 1.1 |
| RIFRYNDTVLCVLLGTNVGD | -0.418 ± 1.1 |
| RIISCRN | 0.331 ± 0.43 |
| RILTVYVPV | 1.19 ± 0.39 |
| RILYLTTDGRKLM | inactive |
| RIMIEFWPRFSWSI | 0.744 ± 0.14 |
| RIMIIGKYVSRMVFGDSFWG | 6.002 ± 0.049 |
| RIPHHWMSVGLVIAPRLKSV | -0.365 ± 0.63 |
| RIVIFFFTCIYPIWIRNTWP | -1.18 ± 1.1 |
| RIVVYMSLCQCL | 8.609 ± 0.076 |
| RIWYY | inactive |
| RIYFVEFMESWWGVGSLKEV | 3.51 ± 0.094 |
| RIYLVAIYL | 3.49 ± 0.067 |
| RKCLGLRSYATTFRVDQHSC | 0.266 ± 0.3 |

| Substance | amyloid nucleation score |
| --- | --- |
| RKGSNDYPFWPAVVWHPLPA | 0.753 ± 0.4 |
| RKISMTN | -0.573 ± 0.3 |
| RKRVVSQEPCL | -0.996 ± 0.78 |
| RKVFLRLCLLVWLNG | -0.292 ± 0.3 |
| RKVLWKSDTSSLLNEWSIAH | -0.178 ± 0.49 |
| RKVPVR | inactive |
| RLELVTVVSVSMHDLRHRRR | 4.75 ± 0.071 |
| RLHKTSNITTWIAHPLHNR | -0.038 ± 0.65 |
| RLIYCVVGRCCNCSFYFTRM | 2.75 ± 0.09 |
| RLIYLCGSRGPNTEFVRVKR | 3.21 ± 0.055 |
| RLLNPRVSKVWICAHNARDL | 1.1 ± 0.24 |
| RLLTSHD | 4.12 ± 0.089 |
| RLMQSVMCRRDLLL | 0.883 ± 0.47 |
| RLNALLVWFVRVSMALVRES | -0.661 ± 1.1 |
| RLRKFESLLICDRISIIVRY | 0.621 ± 0.56 |
| RLSFNWSLKSYMLPLESSVV | -0.079 ± 0.55 |
| RLTVRWAYMSLLTVGQGGIM | 0.21 ± 1 |
| RLTVTGVALVFKGFAAEYGL | 5.81 ± 0.066 |
| RLVFVFITDG | 2.96 ± 0.054 |
| RLYCQRFPRFENITIWELLL | -1.71 ± 0.54 |
| RMGCLFCRESNWILSFYSVS | 5.87 ± 0.074 |
| RMLADGVTLVPCWALQL | 0.57 ± 0.43 |
| RMRLPPFPIDWSDAYLFWHS | 1.28 ± 0.38 |
| RMVKLDDNVKYYVKSVEGYE | 0.276 ± 0.6 |
| RMVLSGNLLQRNRNYPNQRM | 2.03 ± 0.079 |

| Substance | amyloid nucleation score |
| --- | --- |
| RMVSPSPMAQNKLGYATTLG | 0.02 ± 0.49 |
| RNAEA | -0.5 ± 0.63 |
| RNGVLAIGLY | -0.759 ± 0.63 |
| RNHFLLCFLRCNEEYAQVRG | 3.69 ± 0.059 |
| RNITVTIFCLTAHRA | 9.317 ± 0.054 |
| RNLTFYKTSPVGRC | 0.712 ± 0.4 |
| RNSIFNG | -0.796 ± 0.62 |
| RNWPVIVVWAKTGCQCSFLM | -0.544 ± 0.36 |
| RPLFEFWPKPPL | 2.17 ± 0.14 |
| RPNSSIVLLYPFKMRPFES | inactive |
| RPTAIPAHLIVFSEFCEAEW | 0.739 ± 0.45 |
| RPVCKFL | 0.275 ± 0.5 |
| RQARRRRTSRQHEKGV | 1.49 ± 0.16 |
| RQLAQQYAHAFGYIFHSLYL | 1.19 ± 0.4 |
| RQMDHYQRGFLIIYCQLTDK | inactive |
| RRAENLMEFGLIRAFY | -0.007 ± 0.63 |
| RRDNPWLSHVIW | 1.06 ± 0.33 |
| RREDKLICRFIDVNLEVDW | 2.72 ± 0.066 |
| RRFCSCQLSKPLIFPMVLYW | -0.454 ± 0.53 |
| RRGNLGDAMNNMARFCSYSF | inactive |
| RRKVCYTSQVRRLVNQRNVS | -1.11 ± 0.34 |
| RRLFSVKIAYLCDT | 2.63 ± 0.2 |
| RRLLLLGSFWGSVHQHVTSS | -0.207 ± 0.4 |
| RRLSGSFLRDYVNPWIQRSS | -0.277 ± 0.42 |
| RRMMRP | 2.2 ± 0.4 |

| Substance | amyloid nucleation score |
| --- | --- |
| RRMNHLPFCCKRYRTSRPKF | 0.222 ± 0.64 |
| RRMVMVSANVSLIEQHYCRN | 5.552 ± 0.042 |
| RRNNTGKHFWDWETREGFSM | -0.931 ± 1.1 |
| RRPFVRRLFVLKNMFNSLGR | -0.707 ± 1.1 |
| RRPKHYMAVMSESVGLQCRL | 0.173 ± 0.37 |
| RRRGVLLTRPLKRQLVK | inactive |
| RRTVQWVWAVYIV | -0.803 ± 0.45 |
| RRVGRYESWRNFSNEI | -0.835 ± 0.27 |
| RRVTRKVVGPRNYAYEKYFW | 3.28 ± 0.06 |
| RRWEL | 0.687 ± 0.34 |
| RSCATFIFVMS | 4.98 ± 0.073 |
| RSEDGRGGSKGQIIRVVMNW | 4.76 ± 0.062 |
| RSENSILHVLHRFVA | -0.559 ± 0.64 |
| RSFGLSDPIKTTGKTSV | inactive |
| RSFLLVLAELCFT | 4.22 ± 0.12 |
| RSGLLDMS | -0.129 ± 1.1 |
| RSGNRGPVARYVGYERCMGK | 0.629 ± 0.56 |
| RSLFKLTENCCIIVSWASDN | 8.848 ± 0.057 |
| RSLIFLNWGYSV | 3.59 ± 0.056 |
| RSRSGVLVERFMAVSWDAWH | 5.691 ± 0.051 |
| RSSGSSWRLNYLDEDTVVAR | 1 ± 0.4 |
| RSSLIIALCWFR | 5.54 ± 0.059 |
| RSTPLKYNLRFIPLSHGRRV | -0.431 ± 0.48 |
| RSVALARLMFVPLTLDSV | 0.264 ± 0.2 |
| RSVSGMVWE | 0.21 ± 0.74 |

| Substance | amyloid nucleation score |
| --- | --- |
| RSVSNDKYVFWFLRLVDVKA | 0.225 ± 0.26 |
| RSVSTTHRCRTTLKTSNYCL | 0.778 ± 0.67 |
| RSWVLLSYAPFHCS | 0.482 ± 0.19 |
| RSYFSDFH | inactive |
| RSYQMSGPIALRKWEEEWAE | 0.611 ± 0.46 |
| RTAINESCQDEMG | 5.44 ± 0.073 |
| RTALKYPVSYSRFGSFADES | -0.73 ± 0.41 |
| RTEGRGCRAAWSK | 0.101 ± 0.76 |
| RTLPFWWLNLFWFLNNMDTF | -1.8 ± 1.1 |
| RTMWSIFHYSTVVSRVSTMA | 1.23 ± 0.45 |
| RTSCVYSHWQHNIERLLGRW | inactive |
| RTWCDGGCPV | 0.653 ± 0.81 |
| RTYVGRPENCKSWSYPMLMQ | 4.805 ± 0.039 |
| RVIHKFLYK | 6.288 ± 0.06 |
| RVISFIYWSVTGDSDCLLWC | 4.24 ± 0.067 |
| RVKRRMSFVVAVAQVMGLVG | 0.475 ± 0.23 |
| RVLLHSLRKYLIHDCDVYRA | -0.474 ± 0.55 |
| RVLTGWVVA | 0.215 ± 0.76 |
| RVMMSRISYSLSCVSADKVR | 0.288 ± 0.24 |
| RVMSVCGSYVNRGEADVVSG | 0.364 ± 0.18 |
| RVNCYYSFRS | 6.026 ± 0.038 |
| RVRGWLSMSWGCGMGLPASS | 7.03 ± 0.074 |
| RVRIGQAGVWAPRPKELTLW | 0.679 ± 0.81 |
| RVSHREFYLRGTLVETLLDD | inactive |
| RVSLLMYGWRVGRTNVCGLC | 1.41 ± 0.53 |

| Substance | amyloid nucleation score |
| --- | --- |
| RVTFNFRGMYKLIIMGGVPP | 6.49 ± 0.085 |
| RVVFKHENLDMWCWMS | 1.47 ± 0.11 |
| RVVLCVNLSPTSFVWSRIKE | 3.45 ± 0.15 |
| RVVRLAFNPRPSDAWILYR | 0.325 ± 0.34 |
| RVYLFFYAYHHVICANSSYK | -1.11 ± 0.56 |
| RWCGIGRLGVSNGIVPCWEM | 0.647 ± 0.17 |
| RWEDRPSVTRRSGVRNGFSG | inactive |
| RWIVGQRRKIESWWQMVPIY | 0.81 ± 0.4 |
| RWIVRDSFESWFMVLD | -0.267 ± 0.35 |
| RYENPLYVCDWGFGASLFRP | 0.237 ± 0.22 |
| RYIGMLRFVVCDYGLMIFWS | -0.394 ± 1.1 |
| RYIVILSFVRGSWLYFLTRT | -0.543 ± 0.5 |
| RYKSFMVQQSIDNRVLVGVC | 0.241 ± 0.8 |
| RYLSLVFVYIVGVLYSSCDV | 0.383 ± 0.14 |
| RYLVVKEQDFPDEYAPY | -0.271 ± 0.55 |
| RYMRFYRLAGPAVLRFHLR | inactive |
| RYNDAFSVCRMDEITAWIWC | 2.67 ± 0.085 |
| RYWWRVRIYFVCCVSSLDWV | 7.09 ± 0.077 |
| SAFYSDAL | 1.08 ± 0.54 |
| SALHCISLDVHRIFGSKNAR | 1.36 ± 0.46 |
| SALIF | 0.115 ± 1 |
| SALSGRYAKTLRNGHGLYQE | inactive |
